Results published in patent US20090258926A1 (CENTRE NATIONAL DE LA RECHERCHE SCIENTIFIQUE, published 2009).

Molecular target: importin α of the cellular nuclear import machinery (endogenous, in Hs68 human fibroblasts)
Assay: cell-based or functional assay

Row | Binder | transfection efficiency (luciferase) after 48 hrs relative to MPG [%] | luciferase expression after 12 hrs in synchronized Hs68 cells, relative to expression after 48 hrs [%]
1 | Ac-GALFLGFLGAAGSTMGAWSQPKSKRKV-cysteamide (not fully specified) [MPG^ΔNLS peptide, tested as MPG^ΔNLS/DNA complex with plasmid] | 72 | 
2 | Ac-GALFLGFLGAAGSTMGAWSQPKKKRKV-cysteamide (not fully specified) [MPG peptide (wild-type MPG), tested as MPG/DNA complex with plasmid] |  | 65
